Fewer inactive variants are shown than the library holds.
B1: TPR 5TU (parent)
chain: GGAUCUUCUCGAUCUAACAAAAAAGACAAAUCUGCCACAAAGCUUGAGAGCAUCUUCGGAUGCAGAGGCGGCAGCCUUCGGUGGCGCGAUAGCGCCAACGUUCUCAACUAUGACACGCAAAACGCGUGCUCCGUUGAAUGGAGUUUAUCAUG

Variants of: B1
Test: polymerase ribozyme fitness, log enrichment relative to wild type (log ratio); higher = more active; in vitro selection for triplet polymerase activity
How it was run: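 PCR was used to build mutant libraries for each subunit of a heterodimeric triplet polymerase ribozyme, which were then transcribed. A single in vitro selection round, in triplicate, used a frozen incubation at −7 °C and recovered extended constructs by gel excision, streptavidin beads and RT-PCR. Fitness is the logarithm of genotype enrichment relative to wild-type enrichment, averaged over replicates with inverse-variance weights. The logarithm is base 2, and after Illumina sequencing only genotypes with ≥10 input reads and ≥1 read per output were kept.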

Row | Variant | polymerase ribozyme fitness (log ratio)
1 | A41C C75U G92C A150U | -2.91
2 | A39U U55G G67C G86U A115C | ≤ -4.2
3 | A41C G67A | -3.93
4 | A39G C57G | -2.43
5 | A40C G42C G80U | ≤ -4.2
6 | A41G G65A | -0.45
7 | A40U A52G G65A G70A G128U | ≤ -4.2
8 | A41C A49G C51A G71U C93A C95U U111G | ≤ -4.2
9 | A39G C69G C93U C103G C108U C116U A137C | ≤ -4.2
10 | A41C G62A G65C A89C C95G U151A | ≤ -4.2
11 | A40C C54U A64U U78A G88C A150G | ≤ -4.2
12 | A41G C63G G74A C75U G92U U144C | -3.87
13 | A40C G68U C99A U130G | ≤ -4.2
14 | A41G C54A U56G C57U G84U C99G U109C U146C | ≤ -4.2
15 | A39C C108U | -3.8
16 | A40C G59A C85A A89C | -2.83
17 | A40U A64G C75U A97G | ≤ -4.2
18 | A40G U56A G84A A91C C95G G100U | ≤ -4.2
19 | A41U A60U G84A C95G C105U A110U | ≤ -4.2
20 | A40C C87G C105G | -4.19
21 | A41U C54A C93A G126U | ≤ -4.2
22 | A41U A52U C57U U61C | ≤ -4.2
23 | A40U G48C A64U G83A G143A | ≤ -4.2
24 | A40C C76A | -2.59

Row | Variant | polymerase ribozyme fitness (log ratio)
25 | A41C C87U A142G | -1.45
26 | A41C G86U U90A C129A U130C G140U | ≤ -4.2
27 | A40U C54G C118A | -1.63
28 | A39U C93U U144C | -3.54
29 | A39U U127C | -4
30 | A41G A60U A121C U144A | -1.13
31 | A39C C54A G94A C123U U139A | ≤ -4.2
32 | A39U C99U U146G | -2.56
33 | A39C G83U A138C | -4.18
34 | A40C G92U U135G | -2.96
35 | A40C C85U G124U | -0.182
36 | A39U A49U G59C C132U U148A | ≤ -4.2
37 | A41C G67C C85A C131U A137G | ≤ -4.2
38 | A41C A66U U135A | ≤ -4.2
39 | A39U G94U A122U G143A A147C | ≤ -4.2
40 | A41G G86C | -3.28
41 | A40U G86U | -1.77
42 | A41C U151G | -3.63
43 | A40G U61C G92U U145G | ≤ -4.2
44 | C38U U56A C63A G117C A121U | 0.398
45 | A40G G48A C125A | ≤ -4.2
46 | A41C G50A A89U A113U A115G U146A | -4.05
47 | A39C G80C C85U A89G C116G | ≤ -4.2
48 | A39C A107C G141C | ≤ -4.2

Row | Variant | polymerase ribozyme fitness (log ratio)
49 | A39G U53C A91U C95G | ≤ -4.2
50 | A39U C69U U82C C96U | -2.44
51 | A39C G83U | -2.83
52 | A41C A52C | -1.97
53 | A41C C123U G126A U135G | -3.4
54 | A39U C54U C76A A91C U139G | ≤ -4.2
55 | A39U A73G | -2.4
56 | A40U G92U A119G | -0.619
57 | A41C G50C G84A A119G | -3.83
58 | A41U C54U | -0.75
59 | A41C A52C C114U | -3.97
60 | A40G U56A C99U | -2.66
61 | A40C G42U C51G G67A C76A G86C A89U U127G | ≤ -4.2
62 | A40U G117C | -0.102
63 | A40U C93U | -0.794
64 | A41C C87U U102A U109C G136A A138U | ≤ -4.2
65 | A40U G126C | -0.388
66 | A39G U56G A66U G86U A107C | -3.99
67 | A41U A89G U90C G94A A121C | ≤ -4.2
68 | A41G U53A G59C A98G U102C G133A | ≤ -4.2
69 | A39G G84A G136U | -4.02
70 | A39U U56A G62C C85A C95G U101A C123G G143C | ≤ -4.2
71 | A39G G58A U145G | -1.12
72 | A41G C93A A147C | -1.52

Row | Variant | polymerase ribozyme fitness (log ratio)
73 | A41C G80U C95A | -1.46
74 | A39U G86A U102G C103G A106C | ≤ -4.2
75 | A39U G50A G67U G71C G84A | ≤ -4.2
76 | A39U | -1.9
77 | A39C | -1.87
78 | A39G | -1.53
79 | A40C C51G U61A C95G | ≤ -4.2
80 | A40U U45G | -0.54
81 | A40C G50A A91G A147C U151A | ≤ -4.2
82 | A40G G58A | -0.952
83 | A39G G46A U56A C93U C108A | ≤ -4.2
84 | A40U C93A U148A | ≤ -4.2
85 | A40C G141U | 1.43
86 | A40C G92A A97U | -3.34
87 | A41C G42A G59C G68A C95U | ≤ -4.2
88 | A39C G50A G86A G94U G133A | ≤ -4.2
89 | A41G C43A G59C | ≤ -4.2
90 | A39U G50U U139G | -2.97
91 | A40U G58A | 0.274
92 | A39U A89G | -2.99
93 | A40C A89U A137C | -3.94
94 | A40G U53A C54U U82G C87A A89G A137U A138U U145A | ≤ -4.2
95 | A39G G81A C96G | -3.28
96 | A40G U56A G86A | -3.13

Row | Variant | polymerase ribozyme fitness (log ratio)
97 | A41C G50A C96U | -1.93
98 | A39U U55G G81U C103A | ≤ -4.2
99 | A41C G92A | -3.32
100 | A40U C57A A73U C95U U135G C149G | ≤ -4.2
101 | A39G G58A | -1.68
102 | A41C C93G C105U | -2.84
103 | A40C C69U A91U C96A A119G U134A A142U | ≤ -4.2
104 | A41C G58C G59C A113C U145A | -4.1
105 | A40G G59A G68U | ≤ -4.2
106 | A40C A60G G62U G68A A97U G141A A142G | ≤ -4.2
107 | A40C A52U C57U G92C C95U C105U A106C U109C A138G | ≤ -4.2
108 | A40C U55A G86C A115C | -3.79
109 | A39U G84A C123G | -2.9
110 | A41G U53A U55A A91U C99A U148A | ≤ -4.2
111 | A39C G48U G68C G80C C96U U101G A106U | ≤ -4.2
112 | A41C C43U A97G C108U G140U | ≤ -4.2
113 | A39G U55A A91C C108A U144C | ≤ -4.2
114 | A41C U55C U56A C75A G83C C131A U135C | ≤ -4.2
115 | A41C C93A A97C | -3.96
116 | A39C G48C G59U A60U A66G G71A C96U U101G U151A | ≤ -4.2
117 | A41C G81C U82C A97C | -0.593
118 | A41C U82A C125A | -0.821
119 | A39C A66C G86U | ≤ -4.2
120 | A40C G50C G80C A97U U134A U145G | ≤ -4.2

Row | Variant | polymerase ribozyme fitness (log ratio)
121 | A41U | -0.621
122 | A41G | 0.583
123 | A41C | -0.379
124 | A41G G50C | -1.47
125 | A39U A110G U148G | -4
126 | A40C U61A | -1.94
127 | A39C C96U | -2.7
128 | A40G A60C C105G A138C A147U | ≤ -4.2
129 | A41C U55G G81A C85U | -0.432
130 | A40G A41C | -1.36
131 | A40C A60U G81C A138G C149A | ≤ -4.2
132 | A41C A150U | 0.683
133 | A40U C96U C118U | -0.191
134 | A41G U61A A113U | -2.93
135 | A40C U44A U55A C57A C76A | ≤ -4.2
136 | A39G G42A G81U C87A G94U | ≤ -4.2
137 | A40G C95U | -2.52
138 | A41U C51U C85A A115U A142U | ≤ -4.2
139 | A40U A41U C57U C108U G143U | ≤ -4.2
140 | A41U A49U | -2.28
141 | A40C C87G G94U C95G C118G | ≤ -4.2
142 | A41C C57U | -0.124
143 | A41G C103G | -1.94
144 | A40U U145A | -0.163

Row | Variant | polymerase ribozyme fitness (log ratio)
145 | A41C U53A C63U C76A | ≤ -4.2
146 | A41G A66C A89C G92U A97U G124U | ≤ -4.2
147 | A39U A138C A150G | -4.1
148 | A40U G50C A91G U104A | ≤ -4.2
149 | A39U A49U | -4.19
150 | A41C A49C U56A G67C C76G C87A | ≤ -4.2
151 | A40G C85G | -3.63
152 | A41C G42A A49G G88C U135A | ≤ -4.2
153 | A39U G70C G80U C87G C93U U134C | ≤ -4.2
154 | A40U G83A C95A A115U G128U C129A | ≤ -4.2
155 | A40G G86U A120G | -3.99
156 | A40U C54U G70C G117U G128C A137G | ≤ -4.2
157 | A40C C99U A137U U146A | -4.14
158 | A39U U61C | -4.04
159 | A40C G48A | -1.28
160 | A39G U53C U77G A113C C116A | ≤ -4.2
161 | A40C A52C U53A A73U C76A G83C U102A | ≤ -4.2
162 | A39U G59C U146G A150G | -3.66
163 | A40C G65A A73U A98U | ≤ -4.2
164 | A40C A52U U111C A119U U139G U151G | ≤ -4.2
165 | A39C C76A U101G C114U C125G U145G | -3.83
166 | A40C A52G | 0.882
167 | C38U U56A G68A C95A | ≤ -4.2
